Substrate: C=C(OP(=O)(O)O)C(=O)O
Assay: continuous coupled spectrophotometric Pi release assay (MtPNP / MESG)
Format: biochemical, Mycolicibacterium smegmatis
Details: apparent constant, PEP varied at fixed-saturating S3P, 100 mM Tris-HCl pH 7.8, 25°C
From the text: continuous coupled spectrophotometric Pi release assay (MtPNP / MESG) on MsEPSPS

B1: MsEPSPS (Mycolicibacterium smegmatis MC2 155) (protein)
chain: MSARADEEQKPHWAAPSTTAPVDATVTVPGSKSLTNRALILAALATSQGTSTISGALRSRDTDLMIEAIRTLGVTVDISAADPTELTVHGSIEPATDATVDCGLAGTVLRFVPPVAALSRSSVTFDGDEQARSRPIAPLLDGLRRLGVRLDGDGLPFTVRGTGTVSGGTVEIDASGSSQFVSGLLLSGAGFENGLTIVHTGVSVPSAPHVAMTVAMLRDAGVEVDDSVANRWQVNPGPVAARSWNIEPDLSNSTPFLAAALVTGGTVRIAGWPTVSIQPADTILELLATVGGSVREADGHLEVTGAHEYGGFEADLHDVGELAPTVAALAALAKEGSTSQLRGIAHLRGHETDRLAALTTEINGLGGDCRETDDGLLITARPLHGGTWRSYADHRMATAGAIVGLRVPGVVVENIETTAKTLPDFPSMWVDMLAGEPGRNQQR
notes: full-length WT aroA in pET-23a(+) (NdeI/HindIII), expressed in E. coli; no tag evident (native stop codon in reverse primer, ion-exchange and hydrophobic purification); apparent mass 46 kDa on SDS-PAGE
Km: 88 ± 11 µM
kcat: 0.553 ± 0.0185 s⁻¹
kcat/Km: 6280 M⁻¹ s⁻¹

B2: MsEPSPS (Mycolicibacterium smegmatis MC2 155; E321N) (protein)
chain: MSARADEEQKPHWAAPSTTAPVDATVTVPGSKSLTNRALILAALATSQGTSTISGALRSRDTDLMIEAIRTLGVTVDISAADPTELTVHGSIEPATDATVDCGLAGTVLRFVPPVAALSRSSVTFDGDEQARSRPIAPLLDGLRRLGVRLDGDGLPFTVRGTGTVSGGTVEIDASGSSQFVSGLLLSGAGFENGLTIVHTGVSVPSAPHVAMTVAMLRDAGVEVDDSVANRWQVNPGPVAARSWNIEPDLSNSTPFLAAALVTGGTVRIAGWPTVSIQPADTILELLATVGGSVREADGHLEVTGAHEYGGFEADLHDVGNLAPTVAALAALAKEGSTSQLRGIAHLRGHETDRLAALTTEINGLGGDCRETDDGLLITARPLHGGTWRSYADHRMATAGAIVGLRVPGVVVENIETTAKTLPDFPSMWVDMLAGEPGRNQQR
notes: as for B1
Km: 3,081 ± 808 μM
kcat: 0.438 ± 0.0469 s⁻¹
kcat/Km: 142 M⁻¹ s⁻¹

B3: MsEPSPS (Mycolicibacterium smegmatis MC2 155; R134A) (protein)
chain: MSARADEEQKPHWAAPSTTAPVDATVTVPGSKSLTNRALILAALATSQGTSTISGALRSRDTDLMIEAIRTLGVTVDISAADPTELTVHGSIEPATDATVDCGLAGTVLRFVPPVAALSRSSVTFDGDEQARSAPIAPLLDGLRRLGVRLDGDGLPFTVRGTGTVSGGTVEIDASGSSQFVSGLLLSGAGFENGLTIVHTGVSVPSAPHVAMTVAMLRDAGVEVDDSVANRWQVNPGPVAARSWNIEPDLSNSTPFLAAALVTGGTVRIAGWPTVSIQPADTILELLATVGGSVREADGHLEVTGAHEYGGFEADLHDVGELAPTVAALAALAKEGSTSQLRGIAHLRGHETDRLAALTTEINGLGGDCRETDDGLLITARPLHGGTWRSYADHRMATAGAIVGLRVPGVVVENIETTAKTLPDFPSMWVDMLAGEPGRNQQR
notes: as for B1
Km: 3,676 ± 1,007 μM
kcat: 0.184 ± 0.033 s⁻¹
kcat/Km: 50.1 M⁻¹ s⁻¹

B4: MsEPSPS (Mycolicibacterium smegmatis MC2 155; D61W) (protein)
chain: MSARADEEQKPHWAAPSTTAPVDATVTVPGSKSLTNRALILAALATSQGTSTISGALRSRWTDLMIEAIRTLGVTVDISAADPTELTVHGSIEPATDATVDCGLAGTVLRFVPPVAALSRSSVTFDGDEQARSRPIAPLLDGLRRLGVRLDGDGLPFTVRGTGTVSGGTVEIDASGSSQFVSGLLLSGAGFENGLTIVHTGVSVPSAPHVAMTVAMLRDAGVEVDDSVANRWQVNPGPVAARSWNIEPDLSNSTPFLAAALVTGGTVRIAGWPTVSIQPADTILELLATVGGSVREADGHLEVTGAHEYGGFEADLHDVGELAPTVAALAALAKEGSTSQLRGIAHLRGHETDRLAALTTEINGLGGDCRETDDGLLITARPLHGGTWRSYADHRMATAGAIVGLRVPGVVVENIETTAKTLPDFPSMWVDMLAGEPGRNQQR
notes: as for B1
Km: 1,014 ± 975 μM
kcat: 0.107 ± 0.0608 s⁻¹
kcat/Km: 106 M⁻¹ s⁻¹
